One block for each binder: values may come before it.
B3: GST-HDAC4(aa 612-1084) (enzyme, human, UniProt P56524 612-1084, looked up)
chain: MEAAGIPVSFGGHRPLSRAQSSPASATFPVSVQEPPTKPRFTTGLVYDTLMLKHQCTCGSSSSHPEHAGRIQSIWSRLQETGLRGKCECIRGRKATLEELQTVHSEAHTLLYGTNPLNRQKLDSKKLLGSLASVFVRLPCGGVGVDSDTIWNEVHSAGAARLAVGCVVELVFKVATGELKNGFAVVRPPGHHAEESTPMGFCYFNSVAVAAKLLQQRLSVSKILIVDWDVHHGNGTQQAFYSDPSVLYMSLHRYDDGNFFPGSGAPDEVGTGPGVGFNVNMAFTGGLDPPMGDAEYLAAFRTVVMPIASEFAPDVVLVSSGFDAVEGHPTPLGGYNLSARCFGYLTKQLMGLAGGRIVLALEGGHDLTAICDASEACVSALLGNELDPLPEKVLQQRPNANAVRSMEKVMEIHSKYWRCLQRTTSTAGRSLIEAQTCENEEAETVTAMASLSVGVKPAEKRPDEEPMEEEPPL
notes: range 612-1084; also called recombinant fusion protein corresponding to the catalytically active domain of HDAC4; not shown: glutathione-S-transferase (GST), fusion partner
B4: endogenous HDAC3 (enzyme, UniProt O15379 1-428, looked up)
chain: MAKTVAYFYDPDVGNFHYGAGHPMKPHRLALTHSLVLHYGLYKKMIVFKPYQASQHDMCRFHSEDYIDFLQRVSPTNMQGFTKSLNAFNVGDDCPVFPGLFEFCSRYTGASLQGATQLNNKICDIAINWAGGLHHAKKFEASGFCYVNDIVIGILELLKYHPRVLYIDIDIHHGDGVQEAFYLTDRVMTVSFHKYGNYFFPGTGDMYEVGAESGRYYCLNVPLRDGIDDQSYKHLFQPVINQVVDFYQPTCIVLQCGADSLGCDRLGCFNLSIRGHGECVEYVKSFNIPLLVLGGGGYTVRNVARCWTYETSLLVEEAISEELPYSEYFEYFAPDFTLHPDVSTRIENQNSRQYLDQIRQTIFENLKMLNHAPSVQIHDVPADLLTYDRTDEADAEERGPEENYSRPEAPNEFYDGDHDNDKESDVEI
notes: SupT1 and 293 are human cell lines

How the values were obtained:
[1] = biological target: T1, FLAG-tagged HDAC7-K86AK88A (expressed in DO11.10 cells) (human, UniProt Q8WUI4 1-952); test: anti-FLAG immunoprecipitation from DO11.10 polyclonal cell lines, endogenous MEF2D
T1 construct: not shown: FLAG tag
T1 sequence: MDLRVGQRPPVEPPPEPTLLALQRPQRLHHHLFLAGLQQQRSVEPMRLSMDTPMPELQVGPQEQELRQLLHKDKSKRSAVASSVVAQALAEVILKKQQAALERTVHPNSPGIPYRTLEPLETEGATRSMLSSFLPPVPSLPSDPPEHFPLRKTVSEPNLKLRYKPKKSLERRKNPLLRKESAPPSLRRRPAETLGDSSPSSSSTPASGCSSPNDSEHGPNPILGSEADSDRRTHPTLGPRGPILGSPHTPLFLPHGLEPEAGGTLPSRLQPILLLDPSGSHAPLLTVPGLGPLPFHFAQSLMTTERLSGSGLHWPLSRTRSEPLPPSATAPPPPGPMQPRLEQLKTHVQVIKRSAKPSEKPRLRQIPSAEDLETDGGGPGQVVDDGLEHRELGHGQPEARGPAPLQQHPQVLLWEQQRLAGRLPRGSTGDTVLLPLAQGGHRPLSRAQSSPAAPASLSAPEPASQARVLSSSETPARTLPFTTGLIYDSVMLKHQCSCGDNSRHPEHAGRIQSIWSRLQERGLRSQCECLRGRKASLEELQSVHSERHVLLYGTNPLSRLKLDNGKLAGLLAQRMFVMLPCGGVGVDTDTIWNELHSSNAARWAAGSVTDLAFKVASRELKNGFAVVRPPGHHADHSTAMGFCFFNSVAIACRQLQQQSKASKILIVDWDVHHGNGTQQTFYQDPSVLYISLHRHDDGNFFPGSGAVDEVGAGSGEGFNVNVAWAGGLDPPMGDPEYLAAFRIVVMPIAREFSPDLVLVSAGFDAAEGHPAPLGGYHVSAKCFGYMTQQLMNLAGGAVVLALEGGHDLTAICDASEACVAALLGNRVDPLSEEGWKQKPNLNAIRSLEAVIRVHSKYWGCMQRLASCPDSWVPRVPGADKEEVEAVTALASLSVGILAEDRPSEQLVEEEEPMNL

[2] = biological target: T2, FLAG-tagged HDAC7-ΔMEF (expressed in DO11.10 cells) (human, UniProt Q8WUI4 1-952); test: as above
T2 construct: not shown: FLAG tag
T2 sequence: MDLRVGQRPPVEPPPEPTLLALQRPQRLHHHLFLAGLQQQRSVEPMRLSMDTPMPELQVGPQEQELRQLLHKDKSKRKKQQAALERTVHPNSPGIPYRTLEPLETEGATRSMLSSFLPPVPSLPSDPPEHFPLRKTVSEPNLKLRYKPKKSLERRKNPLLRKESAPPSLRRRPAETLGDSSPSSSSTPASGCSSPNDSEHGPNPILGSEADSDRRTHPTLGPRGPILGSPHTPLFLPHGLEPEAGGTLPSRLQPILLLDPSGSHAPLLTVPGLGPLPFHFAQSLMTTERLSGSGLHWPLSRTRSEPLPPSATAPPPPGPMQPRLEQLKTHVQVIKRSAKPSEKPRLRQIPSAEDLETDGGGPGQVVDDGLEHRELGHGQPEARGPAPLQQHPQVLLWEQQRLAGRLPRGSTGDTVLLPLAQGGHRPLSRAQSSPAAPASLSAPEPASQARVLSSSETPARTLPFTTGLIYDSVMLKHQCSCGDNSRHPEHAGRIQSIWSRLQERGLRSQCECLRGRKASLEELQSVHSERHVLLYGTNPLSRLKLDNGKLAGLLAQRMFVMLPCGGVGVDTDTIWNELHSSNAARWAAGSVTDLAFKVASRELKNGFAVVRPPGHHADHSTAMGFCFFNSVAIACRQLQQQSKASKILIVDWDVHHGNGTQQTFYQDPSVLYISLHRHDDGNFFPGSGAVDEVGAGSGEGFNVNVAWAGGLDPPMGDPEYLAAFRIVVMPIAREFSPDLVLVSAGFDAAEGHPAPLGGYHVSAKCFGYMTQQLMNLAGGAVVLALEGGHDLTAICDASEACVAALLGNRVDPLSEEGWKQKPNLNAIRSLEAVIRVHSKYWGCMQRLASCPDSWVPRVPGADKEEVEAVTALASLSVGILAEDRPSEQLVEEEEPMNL

[3] = biological target: B4; test: GST pull-down from SupT1 cell extracts, western blot
[4] = biological target: endogenous HDAC1 (UniProt Q13547 1-482); test: repeated incubation of 293 or SupT1 extracts with the GST fusion, western blot of the depleted extract
[5] = biological target: T3, endogenous HDAC3, O15379
T3 chain: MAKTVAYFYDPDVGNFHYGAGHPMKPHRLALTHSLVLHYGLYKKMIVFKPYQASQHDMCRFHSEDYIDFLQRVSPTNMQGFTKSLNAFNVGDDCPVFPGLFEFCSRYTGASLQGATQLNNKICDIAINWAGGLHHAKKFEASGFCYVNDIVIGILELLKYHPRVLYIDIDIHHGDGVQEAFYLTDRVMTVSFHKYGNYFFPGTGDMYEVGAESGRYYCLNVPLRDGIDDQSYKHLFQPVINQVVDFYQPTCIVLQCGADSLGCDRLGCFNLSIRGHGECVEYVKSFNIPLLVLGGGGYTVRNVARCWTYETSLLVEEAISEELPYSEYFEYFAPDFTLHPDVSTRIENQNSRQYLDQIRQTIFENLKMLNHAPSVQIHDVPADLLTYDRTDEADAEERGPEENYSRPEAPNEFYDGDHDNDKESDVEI

[6] = biological target: B3; test: repeated incubation of 293 or SupT1 extracts with the GST fusion, western blot of the depleted extract
[7] = biological target: B4; test: cell-based or functional assay

Sequence of endogenous HDAC1 (Q13547 whole entry, the tested form may be a part): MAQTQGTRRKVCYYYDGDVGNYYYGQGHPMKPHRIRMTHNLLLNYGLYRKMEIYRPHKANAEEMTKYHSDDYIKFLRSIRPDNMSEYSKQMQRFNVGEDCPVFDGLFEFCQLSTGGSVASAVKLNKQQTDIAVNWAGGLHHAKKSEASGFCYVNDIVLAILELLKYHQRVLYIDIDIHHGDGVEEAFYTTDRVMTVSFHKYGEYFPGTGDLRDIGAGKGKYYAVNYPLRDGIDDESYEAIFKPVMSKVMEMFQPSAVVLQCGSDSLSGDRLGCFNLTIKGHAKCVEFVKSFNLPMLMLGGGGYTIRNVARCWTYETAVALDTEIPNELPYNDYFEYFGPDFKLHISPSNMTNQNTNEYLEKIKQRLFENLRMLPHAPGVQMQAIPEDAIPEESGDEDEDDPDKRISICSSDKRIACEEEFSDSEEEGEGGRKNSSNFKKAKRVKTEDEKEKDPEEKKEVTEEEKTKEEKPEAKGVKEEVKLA

binding result [1]: no binding
binding result [2]: no binding
B1: endogenous MEF2D of DO11.10 T-cell hybridoma cells (other, UniProt Q63943 1-514, looked up)
chain: MGRKKIQIQRITDERNRQVTFTKRKFGLMKKAYELSVLCDCEIALIIFNHSNKLFQYASTDMDKVLLKYTEYNEPHESRTNADIIETLRKKGFNGCDSPEPDGEDSLEQSPLLEDKYRRASEELDGLFRRYGSSVPAPNFAMPVTVPVSNQSSMQFSNPSSSLVTPSLVTSSLTDPRLLSPQQPALQRNSVSPGLPQRPASAGAMLGGDLNSANGACPSPVGNGYVSARASPGLLPVANGNSLNKVIPAKSPPPPTHNTQLGAPSRKPDLRVITSQGGKGLMHHLTEDHLDLNNAQRLGVSQSTHSLTTPVVSVATPSLLSQGLPFSSMPTAYNTDYQLPSAELSSLPAFSSPAGLALGNVTAWQQPQPPQQPQPPQPPQSQPQPPQPQPQQPPQQQPHLVPVSLSNLIPGSPLPHVGAALTVTTHPHISIKSEPVSPSRERSPAPPPPAVFPAARPEPGEGLSSPAGGSYETGDRDDGRGDFGPTLGLLRPAPEPEAEGSAVKRMRLDTWTLK

binding result [3]: no binding
B2: GST-HDAC7(aa 487-912) (enzyme)
chain: YDSVMLKHQCSCGDNSRHPEHAGRIQSIWSRLQERGLRSQCECLRGRKASLEELQSVHSERHVLLYGTNPLSRLKLDNGKLAGLLAQRMFVMLPCGGVGVDTDTIWNELHSSNAARWAAGSVTDLAFKVASRELKNGFAVVRPPGHHADHSTAMGFCFFNSVAIACRQLQQQSKASKILIVDWDVHHGNGTQQTFYQDPSVLYISLHRHDDGNFFPGSGAVDEVGAGSGEGFNVNVAWAGGLDPPMGDPEYLAAFRIVVMPIAREFSPDLVLVSAGFDAAEGHPAPLGGYHVSAKCFGYMTQQLMNLAGGAVVLALEGGHDLTAICDASEACVAALLGNRVDPLSEEGWKQKPNLNAIRSLEAVIRVHSKYWGCMQRLASCPDSWVPRVPGADKEEVEAVTALASLSVGILAEDRPSEQLVEEEEP
notes: not shown: glutathione-S-transferase (GST) of the pGEX4T1 vector (Pharmacia), N-terminal fusion partner

Binder: B3
binding result [4]: no binding
HDAC activity associated with the GST pull-down from GST-HDAC4 depleted lysate against GST depleted lysate (fold reduction) [5]: 3

Binder: B4
binding result [6]: binds

HDAC activity of HDAC7-FLAG immunoprecipitated from the cytoplasmic fraction of 293 cells [7]: 3240 counts/min
HDAC activity of HDAC7-FLAG immunoprecipitated from the nuclear fraction of 293 cells [7]: 14800 counts/min
B5: HDAC7-FLAG (full-length human HDAC7 with C-terminal FLAG tag, expressed in cells) (protein)
chain: MDLRVGQRPPVEPPPEPTLLALQRPQRLHHHLFLAGLQQQRSVEPMRLSMDTPMPELQVGPQEQELRQLLHKDKSKRSAVASSVVKQKLAEVILKKQQAALERTVHPNSPGIPYRTLEPLETEGATRSMLSSFLPPVPSLPSDPPEHFPLRKTVSEPNLKLRYKPKKSLERRKNPLLRKESAPPSLRRRPAETLGDSSPSSSSTPASGCSSPNDSEHGPNPILGSEADSDRRTHPTLGPRGPILGSPHTPLFLPHGLEPEAGGTLPSRLQPILLLDPSGSHAPLLTVPGLGPLPFHFAQSLMTTERLSGSGLHWPLSRTRSEPLPPSATAPPPPGPMQPRLEQLKTHVQVIKRSAKPSEKPRLRQIPSAEDLETDGGGPGQVVDDGLEHRELGHGQPEARGPAPLQQHPQVLLWEQQRLAGRLPRGSTGDTVLLPLAQGGHRPLSRAQSSPAAPASLSAPEPASQARVLSSSETPARTLPFTTGLIYDSVMLKHQCSCGDNSRHPEHAGRIQSIWSRLQERGLRSQCECLRGRKASLEELQSVHSERHVLLYGTNPLSRLKLDNGKLAGLLAQRMFVMLPCGGVGVDTDTIWNELHSSNAARWAAGSVTDLAFKVASRELKNGFAVVRPPGHHADHSTAMGFCFFNSVAIACRQLQQQSKASKILIVDWDVHHGNGTQQTFYQDPSVLYISLHRHDDGNFFPGSGAVDEVGAGSGEGFNVNVAWAGGLDPPMGDPEYLAAFRIVVMPIAREFSPDLVLVSAGFDAAEGHPAPLGGYHVSAKCFGYMTQQLMNLAGGAVVLALEGGHDLTAICDASEACVAALLGNRVDPLSEEGWKQKPNLNAIRSLEAVIRVHSKYWGCMQRLASCPDSWVPRVPGADKEEVEAVTALASLSVGILAEDRPSEQLVEEEEPMNL
HDAC activity, nuclear against cytoplasmic fraction [5]: 4.5 times higher

Source: US20030143712A1 (J DAVID GLADSTONE INSTITUTES, published 2003)
